Legend:
[1] = biological target: T1, extracellular domain (ECD) of human CD47 (19aa-139aa) with C-terminal 6xHis tag (human, UniProt Q08722 19-139); test: ELISA, coated recombinant CD47, FIG. 4A-4B
T1 construct: also called recombinant CD47; recombinant human CD47
Method: (§1) A 96-well plate was coated overnight at 4° C. with 1 μg/mL recombinant CD47. After washing 3 times, the plate was blocked with 300 μL 100 BSA in PBST at 37° C. for 1 hour. Serially diluted antibodies were added and incubated at 37° C. for 1 hour. The plate was then washed 4 times with PBST and incubated with 1:5000 diluted peroxidase labeled goat anti-human IgG (Fab specific) secondary antibody (Sigma, Cat #A0293) for 1 hour at 37° C. The plate was washed again 4 times with PBST, incubated with 3,3′,5,5′-tetramethylbenzidine (TMB) substrate for 15 min at room temperature, terminated with 1N HCl, and then read at 450 nm.

[2] = biological target: T2, extracellular domain (ECD) of cyno CD47 (4aa-126aa) with C-terminal 6xHis tag (cynomolgus monkey, UniProt Q08722 19-140 (human entry), limits assumed); test: ELISA, coated recombinant CD47, FIG. 4A-4B
T2 construct: also called cynomolgus monkey CD47
T2 chain: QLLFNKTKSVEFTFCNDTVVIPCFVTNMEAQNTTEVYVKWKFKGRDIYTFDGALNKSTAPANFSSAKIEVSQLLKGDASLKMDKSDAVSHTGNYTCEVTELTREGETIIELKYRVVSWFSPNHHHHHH
Method: as §1

[3] = biological target: T3, CD47 on the surface of CD47+ cells (human, UniProt Q08722 19-323); test: flow cytometry, competition with SIRPA-mIgG2a on CD47+ tumor cells; IC50 as grade, legend the 8th table, row 26
T3 construct: whole, on cells; also called CD47+ cell lines; CD47 on Raji cells, HCT-15 cells, human red blood cells (RBCs), human platelets
Method: Tumor cells were harvested, centrifuged, and then resuspended in FACS buffer (PBS plus 2% FBS) at a concentration of 2×10⁶ cells/mL. 100 μL of the cell suspension was dispensed into each well of a 96-well plate. The plate was centrifuged for 5 min and 300×g, and the supernatants were discarded. […] After washing twice with FACS buffer, the plates were resuspended with 300 μL FACS buffer and analyzed by flow cytometry.

[4] = biological target: T1, extracellular domain (ECD) of human …; test: SPR, Biacore 8K, antibody captured by anti-human Fc, monomeric CD47 ECD injected, 25 C, 1:1 Langmuir
Method: Furthermore, binding kinetics measurements of the anti-CD47 antibodies were not affected by antibody valency in the SPR assays because antibodies were immobilized and challenged with monomeric antigens. SPR was performed on a Biacore 8K instrument (GE Healthcare). Antibodies were captured on Biacore Series S CM5 sensor chips coated with a monoclonal mouse anti-human IgG (Fc) antibody (GE Healthcare human antibody capture kit). Serial 3-fold dilutions of CD47 ECD antigen were injected at a flow rate of 30 μL/min. Each sample was analyzed with 1 min association and 10 min dissociation at room temperature (25° C.). After each injection, the chip was regenerated using 3M MgCl₂. A 1:1 Langmuir model of simultaneous fitting of kon and koff was used for kinetics analysis.

[5] = biological target: T3, CD47 on the surface of CD47+ cells; test: flow cytometry on CD47+ cell lines; EC50 as grade, legend the 7th table, row 26
Method: Antibody binding to CD47+ cell lines was quantified by flow cytometry. Harvested cells were centrifuged at 2000 rpm for 5 min, resuspended in 10-15 mL ice-cold culture medium, and then counted. Cells were resuspended in blocking buffer (PBS plus 2% FBS) at a concentration of 3×10⁶ cells/mL. 100 μL of the cell suspension was dispensed into each well of a 96-well plate. Purified antibodies were diluted to the desired concentrations with blocking buffer and 100 μL of diluted antibodies were added to the well and incubated for 1 hour at 4° C. The cells were then washed 3 times with PBS plus 2% FBS. […] The cells were then washed 3 times with 200 μL PBS by centrifuging at 2000 rpm for 5 min. After the last wash, the cells were resuspended in 300 μL cold PBS and analyzed on a FACSVerse™ (BD Biosciences) flow cytometer.

[6] = biological target: T1, extracellular domain (ECD) of human …; test: ELISA, coated recombinant CD47; EC50 as grade, legend the 6th table, row 26
Method: A 96-well plate was coated overnight at 4° C. with 1 μg/ml recombinant CD47. After washing 3 times, the plate was blocked with 300 μL 1% BSA in PBST at 37° C. for 1 hour. Serially diluted antibodies were added and incubated at 37° C. for 1 hour. The plate was then washed 4 times with PBST and incubated with 1:5000 diluted 2nd antibody (Sigma, Cat #A0293) at 37° C. for 1 hour.

[7] = biological target: T1, extracellular domain (ECD) of human …; test: ELISA on recombinant human CD47; legend: NB: not bound

B1: hu.1D15E11-V1 (antibody, human IgG1, kappa, V domains shown)
VH: EVQLVQSGAEVKKPGASVKVSCKASGYTFTSYVMHWVRQAPGQRLEWMGYIDPYNEGTKYNEKFKGRVTITRDTSASTAYMELSSLRSEDTAVYYCSRGGMARRSFDYWGQGTLVTVSS
VL: DIQMTQSPSSLSASVGDRVTITCLASQTIGTWLTWYQQKPGKAPKLLIYAATTLAEGVPSRFSGSGSGTDFTLTISSLQPEDFATYYCQQLYSTPWTFGGGTKVEIKR
notes: Humanised variant of 1D15E11; also called hu.1D15E11-Vi; hu.1D15E11 variants
binding result [1]: binds
binding result [2]: binds

B2: hu.1D15E11-V4 (antibody, human IgG1, kappa, V domains shown)
VH: EVQLVQSGAEVKKPGASVKVSCKASGYTFTSYVMHWVRQAPGQRLEWMGYIDPYNEGTKYNEKFKGRVTITRDTSASTAYMELSSLRSEDTAVYYCSRGGVARRSFDYWGQGTLVTVSS
VL: DIQMTQSPSSLSASVGDRVTITCLASQTIGTWLTWYQQKPGKAPKLLIYAATTLAEGVPSRFSGSGSGTDFTLTISSLQPEDFATYYCQQLYSTPWTFGGGTKVEIKR
notes: Humanised variant of 1D15E11; also called hu.1D15E11 variants
binding result [1]: binds
binding result [2]: binds

B3: hu.1D15E11-V2 (antibody, human IgG1, kappa, V domains shown)
VH: EVQLVQSGAEVKKPGASVKVSCKASGYTFTSYVMHWVRQAPGQRLEWMGYIDPYNEGTKYNEKFKGRVTITSDTSASTAYMELSSLRSEDTAVYYCSRGGMARRSFDYWGQGTLVTVSS
VL: DIQMTQSPSSLSASVGDRVTITCLASQTIGTWLTWYQQKPGKAPKLLIYAATTLAEGVPSRFSGSGSGTDFTLTISSLQPEDFATYYCQQLYSTPWTFGGGTKVEIKR
notes: as for B2
binding result [1]: binds
binding result [2]: binds

B4: hu.1D15E11-V3 (antibody, human IgG1, kappa, V domains shown)
VH: EVQLVQSGAEVKKPGASVKVSCKASGYTFTSYVMHWVRQAPGQRLEWMGYIDPYNEGTKYNEKFKGRVTITRDTSASTAYMELSSLRSEDTAVYYCSRGGIARRSFDYWGQGTLVTVSS
VL: DIQMTQSPSSLSASVGDRVTITCLASQTIGTWLTWYQQKPGKAPKLLIYAATTLAEGVPSRFSGSGSGTDFTLTISSLQPEDFATYYCQQLYSTPWTFGGGTKVEIKR
notes: as for B2
binding result [1]: binds
binding result [2]: binds

B5: M.1D15E11 (antibody, human IgG1, kappa, V domains shown)
VH: EVQLQQSGPELVKPGAPVKMSCKASGYTFTSYVMHWVKQKPGQGLEWIGYIDPYNDGTKYNEKFKGKATLTSDKSSSTAYMELSSLTSEDSAVYYCSRGGMARRSFDYWGQGTTLTVSS
VL: DIQMTQSPASQSASLGESVTITCLASQTIGTWLTWYQQKPGKSPQLLIYAATTLADGVPSRFSGSGSGTKFSFKISSLQAEDFVSYYCQQLYSTPWTFGGGTKLEIKR
notes: Chimeric: mouse variable domains, human IgG1 and human kappa constant regions; also called Chimeric antibody 1D15E11
IC50 [3]: 0.1 to 1 nM
Kd [4]: 1 to 10 nM
EC50 [5]: 0.1 to 0.5 nM
EC50 [6]: 0.01 to 0.1 nM

B6: R.14G4 (antibody, human IgG1, kappa, V domains shown)
VH: QEQLKESGGGLVTPGGTLTLTCTASGFTITSYHMCWVRQAPGKGLEWIGCIYPNNGFTWYASWAKGRFTISKTSSTTVDLKMTSPTTEEMATYFCARGSGNSYNQLDLWGQGTLVTVSS
VL: AIVMTQTPASVSATLGGSVTINCQSSESVYRDNCLGWFQQKPGQPPKLLIYKASTLASGVPSRFKGSGSGTQFTLTISDVVSDDAATYYCAGYKSTITDGTAFGGGTEVVVKR
notes: Chimeric: rabbit variable domains, human IgG1 and human kappa constant regions
IC50 [3]: 1 to 5 nM
EC50 [5]: > 5 nM
EC50 [6]: > 0.5 nM

B7: R.15G10 (antibody, human IgG1, kappa, V domains shown)
VH: QSLEESGGRLVTPGTPLTLTCTASGFTISSYHMNWVRQAPGEGLEWIGIIYVGSGNADYASWAKGRFTISKASTTVDLKITSPTTEDTATYFCARGPTNTYPTYFNLWGPGTLVTVSS
VL: AFELTQTPSSVEAAVGGTVTIKCQASRSITSYLAWYQHKPGQPPTLLIYAASNVASGVSSRFKGSRSGTEYTLTISDLESADAATYYCQSYYAISTNTFGGGTEVVVKR
notes: as for B6
IC50 [3]: 0.1 to 1 nM
EC50 [5]: 0.5 to 5 nM
EC50 [6]: 0.01 to 0.1 nM

B8: R.18B9 (antibody, human IgG1, kappa, V domains shown)
VH: QSLEESGGDLVKPGASLTLTCKASGFSFNSGYMCWVRQAPGKGLEWIACIYAGSSGKTYYASWATGRFTISKTSSTTVTLQMTSLTVADTATYFCARDDGGTYYTDYLYLWGPGTLVTVSS
VL: DVVMTQTPASVEAAVGGTVTIKCQASEGISSYLSWYQQKPGQPPKLLIYKASTLTSGVPSRFKGSGSGTDFTLTISDLESADAATYYCQCTYGSSGSSGYGAAFGGGTEVVVKR
notes: Chimeric: rabbit variable domains, human IgG1 and human kappa constant regions; also called Chimeric antibody 18B9
IC50 [3]: 0.1 to 1 nM
Kd [4]: 10 to 100 nM
EC50 [5]: 0.5 to 5 nM
EC50 [6]: 0.01 to 0.1 nM

B9: hu.18B9.3i HC_D95A (antibody, name in Kabat numbering, V domains shown)
VH: EVQLVESGGGLVQPGGSLRLSCAASGFSFNSGYMSWVRQAPGKGLEWIASIYAGSSGKTYYADWAKGRFTISKTSSKTTVYLQMNSLRAEDTAVYYCARASGGTYYTDYLYLWGQGTLVTVSS
VL: DIQMTQSPSSLSASVGDRVTITCRASEGISSYLSWYQQKPGKAPKLLIYKASTLTSGVPSRFSGSGSGTDFTLTISSLQPEDFATYYCQSTYGSSGSSGYGAAFGGGTKVEIK
notes: Alanine scan variant of hu.18B9.3i; Kabat numbering
binding result [7]: no binding

B10: hu.18B9.3i HC_D100c_A (antibody, V domains shown)
VH: EVQLVESGGGLVQPGGSLRLSCAASGFSFNSGYMSWVRQAPGKGLEWIASIYAGSSGKTYYADWAKGRFTISKTSSKTTVYLQMNSLRAEDTAVYYCARDSGGTYYTAYLYLWGQGTLVTVSS
VL: DIQMTQSPSSLSASVGDRVTITCRASEGISSYLSWYQQKPGKAPKLLIYKASTLTSGVPSRFSGSGSGTDFTLTISSLQPEDFATYYCQSTYGSSGSSGYGAAFGGGTKVEIK
notes: as for B9
binding result [7]: no binding

B11: hu.18B9.3i HC_G97A (antibody, name in Kabat numbering, V domains shown)
VH: EVQLVESGGGLVQPGGSLRLSCAASGFSFNSGYMSWVRQAPGKGLEWIASIYAGSSGKTYYADWAKGRFTISKTSSKTTVYLQMNSLRAEDTAVYYCARDSAGTYYTDYLYLWGQGTLVTVSS
VL: DIQMTQSPSSLSASVGDRVTITCRASEGISSYLSWYQQKPGKAPKLLIYKASTLTSGVPSRFSGSGSGTDFTLTISSLQPEDFATYYCQSTYGSSGSSGYGAAFGGGTKVEIK
notes: as for B9
binding result [7]: no binding

B12: hu.18B9.3i HC_G98A (antibody, name in Kabat numbering, V domains shown)
VH: EVQLVESGGGLVQPGGSLRLSCAASGFSFNSGYMSWVRQAPGKGLEWIASIYAGSSGKTYYADWAKGRFTISKTSSKTTVYLQMNSLRAEDTAVYYCARDSGATYYTDYLYLWGQGTLVTVSS
VL: DIQMTQSPSSLSASVGDRVTITCRASEGISSYLSWYQQKPGKAPKLLIYKASTLTSGVPSRFSGSGSGTDFTLTISSLQPEDFATYYCQSTYGSSGSSGYGAAFGGGTKVEIK
notes: as for B9
binding result [7]: no binding

B13: hu.18B9.3i HC_Y100d_A (antibody, V domains shown)
VH: EVQLVESGGGLVQPGGSLRLSCAASGFSFNSGYMSWVRQAPGKGLEWIASIYAGSSGKTYYADWAKGRFTISKTSSKTTVYLQMNSLRAEDTAVYYCARDSGGTYYTDALYLWGQGTLVTVSS
VL: DIQMTQSPSSLSASVGDRVTITCRASEGISSYLSWYQQKPGKAPKLLIYKASTLTSGVPSRFSGSGSGTDFTLTISSLQPEDFATYYCQSTYGSSGSSGYGAAFGGGTKVEIK
notes: as for B9
binding result [7]: no binding

B14: hu.18B9.3i HC_Y101A (antibody, name in Kabat numbering, V domains shown)
VH: EVQLVESGGGLVQPGGSLRLSCAASGFSFNSGYMSWVRQAPGKGLEWIASIYAGSSGKTYYADWAKGRFTISKTSSKTTVYLQMNSLRAEDTAVYYCARDSGGTYYTDYLALWGQGTLVTVSS
VL: DIQMTQSPSSLSASVGDRVTITCRASEGISSYLSWYQQKPGKAPKLLIYKASTLTSGVPSRFSGSGSGTDFTLTISSLQPEDFATYYCQSTYGSSGSSGYGAAFGGGTKVEIK
notes: as for B9
binding result [7]: no binding
